Measurements from patent US20200239579A1 (Genmab, published 2020).

What was measured:
[1] = target: T1, cynomolgus PD-L1/137-H1 protein (Acro Biosystems, cat. No. PD1-052H4-100) (cynomolgus, UniProt G7PSE7 19-239); test: BLI (Octet HTX), average of 3 experiments
T1 construct: also called cynomolgus PD-L1 (BLI)
Experimental: (§1) In a first set of experiments, affinities for recombinant-expressed human PD-L1 protein were determined using Bio-layer interferometry (BLI) on an Octet HTX instrument (ForteBio). Anti-Human IgG Fc Capture (AHC) biosensors (ForteBio) were loaded for 900 s with antibodies (1 μg/ml). […] The experiment was carried out while shaking at 1000 rpm at 30° C. Data was analyzed with Data Analysis Software v9.0.0.12 (ForteBio) using the 1:1 model and a global full fit with 1000 s association time and 200 or 1000 s dissociation time. Data traces were corrected by subtraction of a buffer reference, the Y-axis was aligned to the last 10 s of the baseline, and interstep correction as well as Savitzky-Golay filtering was applied. Data traces with a response <0.05 nm were excluded from analysis. As default, the fit using 1000 s dissociation time was used.
The experimental set-up was as described above, with the exception of [0466] Loading time of AHC biosensors with antibodies was 600 s; [0467] Baseline was 300 s; [0468]

[2] = target: T2, human PD-L1 (full length, on cells) (human, UniProt Q9NZQ7 19-290); test: flow cytometry on SK-MES-1 cells, PE anti-human IgG secondary, MFI (PE)
T2 construct: The entry holds the signal peptide; also called CD274; B7H1
T2 sequence (Q9NZQ7 19-290 limits assumed): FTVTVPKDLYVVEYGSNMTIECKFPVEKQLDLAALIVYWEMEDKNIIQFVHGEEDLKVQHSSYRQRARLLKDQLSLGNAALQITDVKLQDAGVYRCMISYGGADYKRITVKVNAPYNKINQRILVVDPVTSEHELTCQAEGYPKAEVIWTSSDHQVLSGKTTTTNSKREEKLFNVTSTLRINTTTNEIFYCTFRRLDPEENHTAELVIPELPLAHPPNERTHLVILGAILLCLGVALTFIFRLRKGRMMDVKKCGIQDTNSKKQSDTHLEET
Experimental: (§2) Cells (3-5×10⁴ cells/well) were incubated in polystyrene 96-well round-bottom plates (Greiner bio-one, cat. no. 650101) with serial dilutions of antibodies (range 0.0001 to 10 μg/mL in 5-fold dilution steps) in 50 μL PBS/0.1% BSA/0.02% azide (staining buffer) at 4° C. for 30 min.
(§3) After washing twice in staining buffer, cells were incubated in 50 μL secondary antibody at 4° C. for 30 min. As a secondary antibody, R-Phycoerythrin (PE)-conjugated goat-anti-human IgG F(ab′)₂ (Cat. no. 109-116-098, Jackson ImmunoResearch Laboratories, Inc., West Grove, Pa.) diluted 1:500 in staining buffer, was used for all experiments. Next, cells were washed twice in staining buffer, re-suspended in 20 μL staining buffer and analyzed on an iQue screener (Intellicyt Corporation, USA). Binding curves were analyzed using non-linear regression (sigmoidal dose-response with variable slope) using GraphPad Prism V75.04 software (GraphPad Software, San Diego, Calif., USA).

[3] = target: T2, human PD-L1 (full length, on cells); test: flow cytometry on MDA-MB-231 cells, PE anti-human IgG secondary, MFI (PE)
Experimental: as §2, §3

PDLoneECDHisCtag [4] = target: T3, PDLoneECDHisCtag (human, UniProt Q9NZQ7 19-238); test: BLI (Octet HTX), average of 3 experiments; antibody on AHC sensor, PDLoneECD-HisCtag as analyte
T3 construct: Expressed in HEK-293F cells; theoretical molecular weight 29 kDa; also called recombinant human PD-L1 ECD; human PD-L1 (BLI); not shown: C-terminal His-tag; C-tag
T3 sequence (Q9NZQ7 19-238, form in doubt): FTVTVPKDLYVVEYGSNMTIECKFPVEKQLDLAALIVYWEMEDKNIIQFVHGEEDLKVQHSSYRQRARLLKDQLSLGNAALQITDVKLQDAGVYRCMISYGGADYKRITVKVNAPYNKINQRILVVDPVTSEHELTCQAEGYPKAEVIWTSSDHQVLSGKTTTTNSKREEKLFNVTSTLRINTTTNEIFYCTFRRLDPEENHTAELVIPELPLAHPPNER
Experimental: as §1

PDLoneECDHisCtag [5] = target: T3, PDLoneECDHisCtag; test: BLI cross-block, second antibody on PDLoneECDHisCtag held by immobilised 321; bold = blocking
Experimental: (§4) Antibody cross-block testing was performed using biolayer interferometry (BLI) on an Octet HTX instrument (ForteBio). Antibodies (20 μg/ml in 10 mM sodium acetate buffer pH 6.0 (ForteBio)) were immobilized on Amine-Reactive 2nd Generation (AR2G) biosensors (ForteBio) according to the instructions of the manufacturer. After a baseline (50 s) in Sample Diluent (ForteBio), biosensors containing immobilized antibodies were loaded for 500 s with PDLoneECDHisCtag (100 nM or 2.7 μg/ml), after which the association response of a second antibody (10 μg/ml) was followed for 500 s. Biosensors were regenerated by using 3 times 5 s alternating exposures to 10 mM glycine pH 2.5 and Sample Diluent. The experiment was repeated with a new set of second antibodies starting from the baseline step. Each biosensor was used 6 times. The experiment was performed at 30° C. using a shaker speed of 1000 rpm. Data was analyzed using Data Analysis Software v9.0.0.12 (ForteBio). The Y-axis was aligned to the association step and Savitzky-Golay filtering was applied. The average buffer response was subtracted from the association response of the second antibody in order to correct for the dissociation of PDLoneECDHisCtag from the immobilized antibody. The corrected association responses were plotted in a matrix format.

[6] = target: T4, cynomolgus monkey PD-L1 (full length, on CHO cells) (cynomolgus monkey (Macaca fascicularis), UniProt G7PSE7 19-290); test: flow cytometry on CHO cells transfected with cynomolgus PD-L1, PE anti-human IgG secondary, MFI (PE)
T4 construct: whole, on cells; also called PDL1 Mf; cynomolgus PD-L1
T4 sequence (G7PSE7 entry or part of it): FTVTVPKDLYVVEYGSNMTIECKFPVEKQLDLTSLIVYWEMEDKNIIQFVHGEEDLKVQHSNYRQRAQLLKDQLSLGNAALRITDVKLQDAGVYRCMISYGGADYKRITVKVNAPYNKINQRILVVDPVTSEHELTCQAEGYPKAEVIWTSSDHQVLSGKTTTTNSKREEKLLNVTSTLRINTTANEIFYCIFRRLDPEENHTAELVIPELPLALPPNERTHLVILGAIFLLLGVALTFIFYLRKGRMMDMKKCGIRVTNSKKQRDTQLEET
Experimental: as §2, §3
Binding to CHO cells expressing cynomolgus PD-L1 was determined by flow cytometry using a method as described above.

PDLoneECDHisCtag [7] = target: T3, PDLoneECDHisCtag; test: BLI cross-block, second antibody on PDLoneECDHisCtag held by immobilised MEDI; bold = blocking
Experimental: as §4

PDLoneECDHisCtag [8] = target: T3, PDLoneECDHisCtag; test: BLI cross-block, second antibody on PDLoneECDHisCtag held by immobilised 516; plain = non-blocking
Experimental: as §4

[9] = target: T1, cynomolgus PD-L1/137-H1 protein (Acro …); test: BLI (Octet HTX), average of 3 experiments; antibody on AHC sensor, cynomolgus PD-L1 protein (Acro Biosystems) as analyte

T1 sequence (G7PSE7 entry or part of it): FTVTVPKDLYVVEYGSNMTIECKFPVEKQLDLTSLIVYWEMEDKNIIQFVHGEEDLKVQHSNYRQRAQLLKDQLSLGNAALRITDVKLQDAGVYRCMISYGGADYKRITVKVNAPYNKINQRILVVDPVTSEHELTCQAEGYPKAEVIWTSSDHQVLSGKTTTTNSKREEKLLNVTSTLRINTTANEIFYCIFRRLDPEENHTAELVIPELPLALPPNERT

Row | Binder | Fold difference of KD (cynomolgus against human PD-L1) [1] [fold] | EC50 (read off the curve) [2] [µg/mL] | EC50 (read off the curve) [3] [µg/mL] | Kd (PDLoneECDHisCtag [4]) [nM] | koff (PDLoneECDHisCtag [4]) [s⁻¹] | kon (PDLoneECDHisCtag [4]) [M⁻¹ s⁻¹] | association response of the second antibody (PDLoneECDHisCtag [5]) [nm] | EC50 (read off the curve) [6] [µg/mL] | association response of the second antibody (PDLoneECDHisCtag [7]) [nm] | association response of the second antibody (PDLoneECDHisCtag [8]) [nm] | Kd [9] [nM] | koff [9] [s⁻¹] | kon [9] [M⁻¹ s⁻¹]
1 | IgG1-511-LC33S-FEAR (antibody, V domains shown) VH: QVQLVQSGSELKKPGASVMVSCKASGYTFTSYVMNWVRQAPGQGLEWMGWINSYTGNPTSAQGFTGRFVFSFDTSVNTAYLQISSLKAEDTAVYYCARGYCTSTSCYLDYWGQGTLVTVSS VL: SYELTQPPSVSVSPGHTARITCSGDALPKKYASWFQQKSGQAPVLVIYEDSKRPSGIPERFSGSTSGTMATLTISGAQVEDETDYYCYSADTSGTHRVFGGGTKLTVLG | 2.3 | ~0.2 | ~0.04 | 5.1 | 0.0048 | 960000 | 0 | ~0.02 | 0 | 1.1 | 12 | 0.0052 | 450000
2 | IgG1-547-FEAR (antibody, V domains shown) VH: EVQLLEPGGGLVQPGGSLRLSCEASGSTFSTYAMSWVRQAPGKGLEWVSGFSGSGGFTFYADSVRGRFTISRDSSKNTLFLQMSSLRAEDTAVYYCAIPARGYNYGSFQHWGQGTLVTVSS VL: SYVLTQPPSVSVAPGQTARITCGGNNIGSKSVHWYQQKPGQAPVLVVYDDNDRPSGLPERFSGSNSGNTATLTISRVEAGDEADYYCQVWDSSSDHVVFGGGTKLTVLG | 2.3 | ~0.2 | ~0.06 | 0.12 | 0.00011 | 970000 | 0 | ~0.02 | 0 | 0.8 | 0.27 | 0.00012 | 440000
3 | IgG1-338-FEAR (antibody, V domains shown) VH: EVQVVESGGGLVQPGGSLRLSCAASGFTFSRFWMSWVRQAPGKGLEWVANIKQDGGEKYYVDSVKGRFTISRDNAKNSLYLQMNSLRGEDTAVYYCARDDNWNGHFDYWGQGTLVTVSS VL: DIQMTQSPSTLSASVGDRVTITCRASQSISSWLAWYQQKPGKAPNLLIYKASSLESGVPSRFSGSGSGTEFTLTISSLQPDDFATYYCQQYYGSYITFGQGTRLEIKR | 2.3 | ~0.1 | ~0.06 | 0.31 | 0.00025 | 800000 | 0 | ~0.01 | 0 | 1.1 | 0.73 | 0.00028 | 390000
